Literature values in publication PMC3720604.

Target: CK2β (Homo sapiens) (UniProt P67870)
UniProt P67870, sequence (P67870 2-215): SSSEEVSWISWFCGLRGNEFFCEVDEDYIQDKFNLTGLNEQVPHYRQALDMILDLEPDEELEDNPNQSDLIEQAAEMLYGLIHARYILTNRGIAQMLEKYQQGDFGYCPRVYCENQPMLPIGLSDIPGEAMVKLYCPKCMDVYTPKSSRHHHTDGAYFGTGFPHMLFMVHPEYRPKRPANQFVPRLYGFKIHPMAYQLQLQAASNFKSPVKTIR

Kd: 45.5 nM
Substance: CK2α′ (from UniProt P19784)
